From the supplement of paper PMC12636428

Tested on: Saccharomyces cerevisiae
Assay: transcriptional activation domain activity (GFP:mCherry ratio, weighted mean of sorted bins, harmonized to initial dataset scale) (arbitrary fluorescence ratio units); higher = stronger transcriptional activation
Conditions: beta-estradiol 1 µM; induction time 4 h
Summary of the method: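 After a 1:5 dilution into SC with 1 uM beta-estradiol and 4 hours at 30 °C, yeast diploids carrying a GFP reporter and URA3-integrated barcoded tiles were sorted into 8 bins by GFP:mCherry ratio. The tiles were fused to an estradiol-inducible synthetic transcription factor. Barcodes were sequenced, tiles below 50 reads were discarded, and activation activity was taken as the read-weighted mean of bin median fluorescence, averaged across barcodes and linearly mapped onto the initial dataset scale.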

Sequence | transcriptional activation domain activity
RASHNASGFPNFLDTSCSSSFDDHFIFTNNLPFLNNNSINNNHSHNSSHNNNS | 56800
RASTTSPTCSGTSTSARGRGAACSRGASTSGRCTRSSRRTRGSRSGTATSTTR | 33600
RAVAVLRRGDFAGAGGGGGSGAGGGKRRKEKEKEEQEERRRRPAVASRAVKDL | 57500
RAVDNSKWWLLGDSFETDVLTFVSLFQFVNAALIFNYGYLFRDRWYRNYLLLV | 47900
RAYGCEAAFITVLQEKINHYTRCARVFYNLNRWVAVRLELLSSLFTTALAAYL | 63400
RAYGLLKRYILVPATFGYRCAQNIGWCTIPPRVQSLTIFAFVILNLILCCISY | 58000
RAYQQPILEYCRDAIDKESATTLSDERTVSKDDAEAKYSRVISACISLLASLL | 30600
RCANARIVWGARVVGVGGQGEGEAKAWVDVEMAGEEGAKRVERREADFVVGCD | 37600
RCFSFLFLGCHYDTDWGFGFCCLFVINCRFNFCIFFLSLFSSFFVLVSFFLLY | 58800
RCGILLGSKNDGEGVDFVRVRGERIERGSSASIEEGIGEMGRSRPVRFGGGEE | 21500
RCKHSDCQELSPFASVFDLIDHYDHTHAFIPETLVKYSYIHLYKPSVWDLFEY | 157000
RCLVLFLWALDTIHFAFTSHGLYFYLVTSFGDFAVLLSPTWTILAQVYVTNLS | 50100
RCMVIYRSSGFFFWAIVLLPCLMFLASFSESLFQYISSPSFTVTVRLGLGILF | 63200
RCPAARLASSAPSAPPTPASASRTCPRPPRPSPRRTSSKSCSTRSSSASATPR | 48000
RCQAVTVSDEVYSKLRCSSGHSGSGLLFMLIWIRIWKTLVIAYSGFSWREYLY | 88100
RCSIIYAGCHCPMWMVLFVPGCLFGLSVALGTLWLVQASDMLFPHTNYILIYI | 46700
RCWFILLYVMPNIAGTFGLRYVPLQNHVARLWCYYLTGPYNASFVLTLSLVIA | 37400

Sequence | transcriptional activation domain activity
RDAEKGKEKRRSRSKNRDEKMEHAEEATGGEPSREHKADSGKKSRRSSIKKSS | 29500
RDAKERGEGKRKREERDSRRSERGEEDGKRRRESSADRDPDRKRSRRRRKDRD | 40900
RDALSGDPTAPRKRSKVSRACDECRRKKIRCDASSESGIEQCSSCKRVGSKCS | 43500
RDANQCLELYPDIRILLVRLLEYPELMVITPIRMAIRCGLLYFSHLGSDRPQA | 58800
RDARARRTRERRRGRAERAPEEGRREERRKRGRGARGGRARGGAAGRGGRGEG | 32200
RDCQWCAQLVRRTAIVAFNATNAVLNANMYVFVCIFLIAWLVVWKTWLWSVAL | 38300
RDDDAEEDKEEVPKKKNRKGQEVGGEAGKRVEEEEEEEAPKRKKKKAKAAAAD | 13400
RDDGDDDDGDDHDEEREDGGTRGEGRRRGEKGGREGEAARAEVHEASAEAEAG | 16300
RDDGRRRNEKPQRSKNKGTSSTGSDKKKTTEKKSSSSRKTSGSQVDKKLSSKK | 37900
RDEAGGGARRESKKAGARRGRTAEKRGGRGHEGRRQEGGKATKAEGGAEGEGE | 46500
RDESLRTKDKSVSRSRSRSRARDEETDDRRERSRSADRESRREGRGRSATPQG | 34800
RDGMRQGTHSTKGRADVRGSTRKAAPQKGRGRARMGSLRAPHIRGGGIAFGPK | 24000
RDKDDRRRHRDRDDQSSRSHRHHRHRDGDSDRDGDGHRHKRSRHSKAEEAKPS | 28800
RDKKKARAKGGAGAAGGEKKAEGAAAGDAAAAADGEDEEREGKRRKIARAAEG | 42200
RDMLIDTYLTPENLYDVHGPGVPVKTLEIATALVDIVGQYDHNMKLEAWNVLH | 50000
RDNESYSATNNNNLLRPDDNDYNNEALSDIDRSFEDIINGRKLKLKKSRRRSS | 15300
RDNSFLHALIHRFHEVHIVAWCIEKVNFMYLHPGVPFYVLCDCTRGPAIMVLH | 51300
